Consider one molecule from article PMC6662825.

This test deals with Trx-NVL^167–216-(GS)3-eYFP (human) (UniProt O15381). Nature of the test: MST; 50 nM Trx-NVL^167–216-(GS)3-eYFP with a 1:1 dilution series of unlabeled MTR4 KOW; 50 mM Hepes/NaOH pH 7.5, 150 mM NaCl, 5% glycerol, 0.5 mM TCEP; MST power 20%, LED power 20%; triplicates.
Chain of Trx-NVL^167–216-(GS)3-eYFP (human) (O15381 167-216): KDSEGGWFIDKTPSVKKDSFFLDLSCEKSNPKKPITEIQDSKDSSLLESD

B1: MTR4-KOW (domain or fragment)
chain: HKPKYCLPFLQPGRLVKVKNEGDDFGWGVVVNFSKKSNVKPNSGELDPLYVVEVLLRCSKESLKNSATEAAKPAKPDEKGEMQVVPVLVHLLSAISSVRLYIPKDLRPVDNRQSVLKSIQEVQKRFPDGIPLLDPIDDMGIQD
B1 returned a Kd of 1000 nM.
